The values below come from patent US20150175710A1 (DEVELOPMENT CENTER FOR BIOTECHNOLOGY, published 2015).

By Kd is commonly meant the equilibrium constant for the complex coming apart.

Test [1] addresses T1, human ENO1 protein (wild type) (human, UniProt P06733 1-434).
T1 construct: Coated on ELISA plates; also called alpha-Enolase; enolase-1; not shown: source of the protein in Exampl
Nature of the test: ELISA, ENO1 coated, EN10 mAb 2-fold serial dilution, four parameter logistic fit. For orientation: An ELISA detects its analyte on a solid surface through an enzyme-linked reagent.

For test [2], the target named is T2, human ENO1 mutant K326 to alanine (human, UniProt P06733 1-434).
T2 construct: Expressed in E. coli; also called A326; not shown: His tag (Ni-agarose purified)
Nature of the test: ELISA, mutant ENO1 coated, EN10 mAb 2-fold serial dilution, four parameter logistic fit.

Test [3] has as its target T3, human ENO1 mutant A309 to glycine (human, UniProt P06733 1-434).
T3 construct: Expressed in E. coli; not shown: His tag (Ni-agarose purified)
Described as above.

Test [4] addresses T4, human ENO1 mutant N333 to alanine (human, UniProt P06733 1-434).
T4 construct: Expressed in E. coli; also called A333; not shown: His tag (Ni-agarose purified)
Described as above.

In test [5] the target is T5, human ENO1 mutant K335 to alanine (human, UniProt P06733 1-434).
T5 construct: Expressed in E. coli; also called A335; not shown: His tag (Ni-agarose purified)
Described as above.

Test [6] has as its target T6, human ENO1 mutant G302 to alanine (human, UniProt P06733 1-434).
T6 construct: Expressed in E. coli; also called A302; not shown: His tag (Ni-agarose purified)
The test is described as above.

For test [7], the target named is T7, human ENO1 mutant K306 to alanine (human, UniProt P06733 1-434).
T7 construct: Expressed in E. coli; also called A306; not shown: His tag (Ni-agarose purified)
The description is as above.

Test [8] concerns the target T8, human ENO1 mutant D300 to alanine (human, UniProt P06733 1-434).
T8 construct: Expressed in E. coli; also called A300; not shown: His tag (Ni-agarose purified)
Described as above.

Test [9] has as its target T9, human ENO1 mutant Q305 to alanine (human, UniProt P06733 1-434).
T9 construct: Expressed in E. coli; also called A305; not shown: His tag (Ni-agarose purified)
The description is as above.

Test [10] deals with T10, human ENO1 mutant E334 to alanine (human, UniProt P06733 1-434).
T10 construct: Expressed in E. coli; also called A334; not shown: His tag (Ni-agarose purified)
The test is described as above.

In test [11] the target is T1, human ENO1 protein (wild type). Kind of test: ELISA, 400 ng human ENO1 coated, antibody serial dilution, four parameter logistic fit.

T1 sequence (P06733 whole entry): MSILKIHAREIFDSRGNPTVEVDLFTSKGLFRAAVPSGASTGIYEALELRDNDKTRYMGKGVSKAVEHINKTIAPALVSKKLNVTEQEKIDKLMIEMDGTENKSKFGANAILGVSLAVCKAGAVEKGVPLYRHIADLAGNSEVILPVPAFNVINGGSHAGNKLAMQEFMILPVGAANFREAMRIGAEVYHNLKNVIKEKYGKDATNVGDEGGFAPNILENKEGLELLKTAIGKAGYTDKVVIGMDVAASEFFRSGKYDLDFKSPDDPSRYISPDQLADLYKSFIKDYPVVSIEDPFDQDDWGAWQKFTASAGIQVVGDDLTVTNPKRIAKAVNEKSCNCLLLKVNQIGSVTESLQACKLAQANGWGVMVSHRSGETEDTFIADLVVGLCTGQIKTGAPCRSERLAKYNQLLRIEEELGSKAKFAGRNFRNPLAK
T10 sequence (P06733 other isoform, or with tags, fused parts or gaps mutant limits assumed): as the sequence (P06733 whole entry) above, with E334A counted along it
T7 sequence (P06733 other isoform, or with tags, fused parts or gaps mutant limits assumed): as the sequence (P06733 whole entry) above, with K306A counted along it
T6 sequence (P06733 other isoform, or with tags, fused parts or gaps mutant limits assumed): as the sequence (P06733 whole entry) above, with G302A counted along it
T4 sequence (P06733 other isoform, or with tags, fused parts or gaps mutant limits assumed): as the sequence (P06733 whole entry) above, with N333A counted along it
T9 sequence (P06733 other isoform, or with tags, fused parts or gaps mutant limits assumed): as the sequence (P06733 whole entry) above, with Q305A counted along it
T2 sequence (P06733 other isoform, or with tags, fused parts or gaps mutant limits assumed): as the sequence (P06733 whole entry) above, with K326A counted along it
T5 sequence (P06733 other isoform, or with tags, fused parts or gaps mutant limits assumed): as the sequence (P06733 whole entry) above, with K335A counted along it
T8 sequence (P06733 other isoform, or with tags, fused parts or gaps mutant limits assumed): as the sequence (P06733 whole entry) above, with D300A counted along it
T3 sequence (P06733 other isoform, or with tags, fused parts or gaps mutant limits assumed): as the sequence (P06733 whole entry) above, with A309G counted along it

B1: anti-human ENO1 antibody EN10 mAb (antibody, V domains shown)
VH: EVQLQQSGPELVKPGASVKMSCKASGYTFTSCVMNWVKQKPGQGLEWIGYINPYNDGTKYNEKFKGKATLTSDKSSSTAYMELSSLTSEDSAVYYCAREGFYYGNFDNWGQGTTLTVSS
VL: DIQMTQSPASLSASVGETVTITCRASENIYSYLTWYQQKQGKSPQLLVYNAKTLPEGVPSRFSGSGSGTQFSLKINSLQPEDFGSYYCQHHYGTPYTFGGGTKLEITR
Take B1: the Kd in test [1] amounted to 0.443 nM; in [2], 0.787 nM; in [3], 5.63 nM; in test [4] it was 0.413 nM; in test [5], 9.57 nM; in test [6] it was 0.345 nM. Moreover, the Kd in test [7] came to 0.465 nM; in [8] it was 63.3 nM; in [9], 0.331 nM; in [10], 107 nM; in test [11], 0.203 nM.
